Data reported in US20160053277A1, “Compositions Having Dicamba Decarboxylase Activity and Methods of Use” (PIONEER HI-BRED INTERNATIONAL, INC., priority 2013, published 2016).

Key:
[1] = Saturation mutagenesis of SEQ ID NO:109: dicamba decarboxylation activity of point mutants (carbon dioxide released); conditions: decarboxylation activity (carbon dioxide released) of point mutant compared with unmutated backbone protein; backbone SEQ ID NO: 109
[2] = 14C assay with IPTG-induced recombinant E. coli cells: 14CO2 captured from [14C]-carboxyl-labeled dicamba; conditions: for Enzymatic Detection level: dicamba decarboxylation activity of the protein of the given SEQ ID NO, High / Low / No; for Dicamba Decarboxylase Activity: induced recombinant E. coli cells, [14C]-carboxyl-labeled dicamba, 14CO2 capture

B1: 60 (protein, listed as Catenulispora acidiphila)
chain: MARGFVRTAVVPGFWDAGWRGAGQPGGMRVDVHAHLFPAAYLDLLDDFRQDGGVGTREVRALGGGDGERELRLRLAAMDAVGVDVQLLSTCPQGPYTGDPTAAVEAARCANVALAQTVAQYPERLRALAALPLPHILASVDELNRAMEQDGMLGAAVGTSILGRPLSHPDFEPLFAALNRRKGVLFVHPIGESAGSPLMQASKLDRVIGYAAEVSTAILQLFQAGLTVKYPDIRIIAPHMGGYLPFLIQRLDRHRDWYLPKDAPSAGQLMRGIAYDTANPLPAALRLTAEVVGPERLLLGTDYPFEQGPSLRDHIEYILAAGLPEAQAKMIVDVNAADFLDMRSGAEQPPV
- Fold Activity [1]: 1.6
- Enzymatic Detection level [2]: No
- Dicamba Decarboxylase Activity [2]: No

B2: 3 (protein, listed as Lactobacillus plantarum)
chain: MAKLITVEEHFESAAVTAAMRQAVGNAVLPAVSPALRQYMRDNLPSPAIMQDTQHERLAFMAQYGIDMQVLSYGNSSPQNLSPEQAVPLSQLANDELAKAVVAHPDRYAGLAVLPVGDPQAAVAELNRAVTTLGLRGVLLKGNYQNKFFDEPFFLPIFEAAAALDVPVYFHPSFIPQAVTSHYFESNQWSDVVTGILSSAGYGWHMDVGIQVIRMIASGIFDKLPGLKLISGHWGELVPLFLERLDDELTTYTDLQYPFSTYYRHNVYVTPSGILSAPQLQFMLAEMGADHLMYSIDYPYKQPETSGSFLDIADLTDEQRAQIAFGTATTLFKL
- Fold Activity [1]: 0.9
- Enzymatic Detection level [2]: Low
- Dicamba Decarboxylase Activity [2]: Low

B3: 45 (protein)
chain: MANDDLAEVIAAHPDRFAGFAALPMRDPQAAAVELQRAVGTHGFCGAMINGLIEGRFLDDPAFAPLLSTAADLGVPLYLHPSFPPPQVAEIYFGGLAPVLGDLLATAGWGWHAETALHVLRLVATGVFDRLPELWVIVGHMGEMIPFALARIDTVLSPVAQLRQPVAQYFQTNVWFTTSGYTTFPPLQCALSTVGIDRLIFSVDYPYTDNTSARALLDTAPISPVDREKLAHGTVEALLRV
modifications: Mycobacterium sp
- Fold Activity [1]: 1.7
- Enzymatic Detection level [2]: No
- Dicamba Decarboxylase Activity [2]: No

B4: 59 (protein)
chain: MAPSVIDAHAHFLPGSLVTALRSRSDAPDIRTDSNGGESFGIYRTRMPYGRTYDALDVRLARMDELGVDRQILSLPGLFGIDSRPVSQALPLVRAFNDGVADLVRKHPDRFSGIAALPLADLDAAQEEYRRARGDLGLSGLILPGDTFVSVAAAERVRPLFELAATIGGLIFVHPGPLPDETGSAVDAPAPHTDSVVHRRVTVDIQNRMTEVMVTLALTDFLAPYPSVPVQVANLGGSLPFVIERMDHVYALRNPEAPPPSLSLRSLYVDAASLGPRAIALAAEVYGADRVLFGSDYPIFDDGRCLDAVRQTRLSPDARALIAGGNAARMLTQT
modifications: alpha proteobacterium
- Fold Activity [1]: 0.9
- Enzymatic Detection level [2]: No
- Dicamba Decarboxylase Activity [2]: No

B5: 61 (protein, listed as Gordonia amarae)
chain: MATGAGSGVPSPADRVIVRSPGVIDVHAHAVLPMSLGCAGAAGPEIGYREDGSPFFRVGEYVLNGVRYEGSAFMDPEVRVAAMDAAGIGLQMISPNPITYFTRLDARSATDYARAHNDAIAEAAGRHPGRLVGAAQLPMQDVPAAIAELERSVRELGLVAAYIDTDIGDRTLDAPELDDFYSAAVELDVPVFIHPSPVGQEGPPDDTRLRRFDLDLLLGFSYDETLAVAALVFGGVLERHPALDVCLSHGGGTLAFVAGRFARAVAKPRAWVPEFLVENGIESYLRRLWLDTHVHSAGSLRLLIDTVGTDRLVFGTNFAGWDADGATEVDALGDLRETTTANAAHLLRLGRA
- Fold Activity [1]: 2.4
- Enzymatic Detection level [2]: No
- Dicamba Decarboxylase Activity [2]: No
